Experimental data from FireProtDB.
Where “and” joins values, the source holds several entries; their conditions need not be identical. Equal entries are not always repeated.

B1: T132I, Q2YD82 (parent)
chain: MDCAEGRAANLPCNHSTISGNEYVYWYRQIHSQGPQYIIHGLKNNETNEMASLIITEDRKSSTLILPHATLRDTAVYYCIVYDYGQNFVFGPGTRLSVLPYIQNPDPAVYQLRDSKSSDKSVCLFTDFDSQTNVSQSKDSDVYITDKTVLDMRSMDFKSNSAVAWSNKSDFACANAFNNSIIPEDTFFPSPESSCDVKLVEKSFETDTNLNFQNLSVIGFRILLLKVAGFNLLMTLRLWSS
B2: Tissue factor, P13726 (parent)
chain: METPAWPRVPRPETAVARTLLLGWVFAQVAGASGTTNTVAAYNLTWKSTNFKTILEWEPKPVNQVYTVQISTKSGDWKSKCFYTTDTECDLTDEIVKDVKQTYLARVFSYPAGNVESTGSAGEPLYENSPEFTPYLETNLGQPTIQSFEQVGTKVNVTVEDERTLVRRNNTFLSLRDVFGKDLIYTLYYWKSSSSGKKTAKTNTNEFLIDVDKGENYCFSVQAVIPSRTVNRKSTDSPVECMGQEKGEFREIFYIIGAVVFVVIILVIILAISLHKCRKAGVGQSWKENSPLNVS
B3: Membrane-associated guanylate kinase, WW and PDZ domain-containing protein 1, Q96QZ7 (parent)
chain: MSKVIQKKNHWTSRVHECTVKRGPQGELGVTVLGGAEHGEFPYVGAVAAVEAAGLPGGGEGPRLGEGELLLEVQGVRVSGLPRYDVLGVIDSCKEAVTFKAVRQGGRLNKDLRHFLNQRFQKGSPDHELQQTIRDNLYRHAVPCTTRSPREGEVPGVDYNFLTVKEFLDLEQSGTLLEVGTYEGNYYGTPKPPSQPVSGKVITTDALHSLQSGSKQSTPKRTKSYNDMQNAGIVHAENEEEDDVPEMNSSFTADSGEQEEHTLQETALPPVNSSIIAAPITDPSQKFPQYLPLSAEDNLGPLPENWEMAYTENGEVYFIDHNTKTTSWLDPRCLNKQQKPLEECEDDEGVHTEELDSELELPAGWEKIEDPVYGIYYVDHINRKTQYENPVLEAKRKKQLEQQQQQQQQQQQQQQQQQQQQTEEWTEDHSALVPPVIPNHPPSNPEPAREVPLQGKPFFTRNPSELKGKFIHTKLRKSSRGFGFTVVGGDEPDEFLQIKSLVLDGPAALDGKMETGDVIVSVNDTCVLGHTHAQVVKIFQSIPIGASVDLELCRGYPLPFDPDDPNTSLVTSVAILDKEPIIVNGQETYDSPASHSSKTGKVNGMKDARPSSPADVASNSSHGYPNDTVSLASSIATQPELITVHIVKGPMGFGFTIADSPGGGGQRVKQIVDSPRCRGLKEGDLIVEVNKKNVQALTHNQVVDMLVECPKGSEVTLLVQRGGLPVPKKSPKSQPLERKDSQNSSQHSVSSHRSLHTASPSHSTQVLPEFPPAEAQAPDQTDSSGQKKPDPFKIWAQSRSMYENRPMSPSPASGLSKGEREREINSTNFGECPIPDYQEQDIFLWRKETGFGFRILGGNEPGEPIYIGHIVPLGAADTDGRLRSGDELICVDGTPVIGKSHQLVVQLMQQAAKQGHVNLTVRRKVVFAVPKTENEVPSPASSHHSSNQPASLTEEKRTPQGSQNSLNTVSSGSGSTSGIGSGGGGGSGVVSTVVQPYDVEIRRGENEGFGFVIVSSVSRPEAGTTFAGNACVAMPHKIGRIIEGSPADRCGKLKVGDRILAVNGCSITNKSHSDIVNLIKEAGNTVTLRIIPGDESSNATLLTNAEKIATITTTHTPSQQGTQETRNTTKPKQESQFEFKAPQATQEQDFYTVELERGAKGFGFSLRGGREYNMDLYVLRLAEDGPAERCGKMRIGDEILEINGETTKNMKHSRAIELIKNGGRRVRLFLKRGDGSVPEYDPSSDRHGPATGPQGVPEVRAGPDRRQHPSLESSYPPDLHKSSPHGEKRAHARDPKGSREYSRQPNEHHTWNGTSRKPDSGACRPKDRAPEGRRDAQAERAAAANGPKRRSPEKRREGTRSADNTLERREKHEKRRDVSPERRRERSPTRRRDGSPSRRRRSLERLLEQRRSPERRRGGSPERRAKSTDRRRARSPERRRERSLDKRNREDRASHREREEANLKQDAGRSSRHPPEQRRRPYKECSTDLSI
B4: Endo-1,4-beta-xylanase 2, P36217 (parent)
chain: MVSFTSLLAGVAAISGVLAAPAAEVESVAVEKRQTIQPGTGYNNGYFYSYWNDGHGGVTYTNGPGGQFSVNWSNSGNFVGGKGWQPGTKNKVINFSGSYNPNGNSYLSVYGWSRNPLIEYYIVENFGTYNPSTGATKLGEVTSDGSVYDIYRTQRVNQPSIIGTATFYQYWSVRRNHRSSGSVNTANHFNAWAQQGLTLGTMDYQIVAVEGYFSSGSASITVS
B5: E188K|A142V|H125Y, Q88HV5 (parent)
chain: MPFQQGLLATPVPAHARHLFFTLQSPEALPAALDALLPQVDGKQLLLGVGAPLAKALGREIPGLRPFPLLDAAVENPSTQHALWLWLRGDERGDLLLRTQALEQALAPALSLADSVDGFLHRGGHDLTGYEDGTENPTDEEAVQAAIAADGSSFAAFQLWKHDLQYFKSLPQADQDNIIGRRLSDNEELDDAPASAHVKRTAQESFEPEAFMVRRSVSWADQRGAGLAFVALGKSFEAFEVQLRRMSGLEDGIIDGLYRFSRPLTGGYYWCPPMSETGVDLSPLLRA
B6: Glutathione S-transferase Mu 1, P04905 (parent)
chain: MPMILGYWNVRGLTHPIRLLLEYTDSSYEEKRYAMGDAPDYDRSQWLNEKFKLGLDFPNLPYLIDGSRKITQSNAIMRYLARKHHLCGETEEERIRADIVENQVMDNRMQLIMLCYNPDFEKQKPEFLKTIPEKMKLYSEFLGKRPWFAGDKVTYVDFLAYDILDQYHIFEPKCLDAFPNLKDFLARFEGLKKISAYMKSSRYLSTPIFSKLAQWSNK
B7: Ribonuclease, P00648 (parent)
chain: MMKMEGIALKKRLSWISVCLLVLVSAAGMLFSTAAKTETSSHKAHTEAQVINTFDGVADYLQTYHKLPDNYITKSEAQALGWVASKGNLADVAPGKSIGGDIFSNREGKLPGKSGRTWREADINYTSGFRNSDRILYSSDWLIYKTTDHYQTFTKIR

Variants of: B1
Details: Homo sapiens; Thermal; fluorescence; structure 6U07; whole UniProt chain shown

| Variant | Tm [°C] | change of melting temperature, mutant - wild type (higher = more stable) [°C] |
| --- | --- | --- |
| T132I | 55.7 | 0.8 |
| D151S | 53.3 | -1.6 |

Variants of: B2
Details: Homo sapiens; pH 7.5; 23 °C; GdnHCl; Fluorescence; Tris-HCl 50 mM; reversible: yes; structure 1BOY; whole UniProt chain shown

| Variant | ddG of mutation (higher = less stable) [kcal/mol] | denaturant midpoint (higher = more stable) [M] | unfolding free energy [kcal/mol] |
| --- | --- | --- | --- |
| R232W | -0.6 | 1.37 | 6.9 |

Variants of: B3
Details: Homo sapiens; pH 7; Thermal; CD; Tris-HCl 20 mM; NaCl 100 mM; structure 2ZAJ; whole UniProt chain shown

| Variant | unfolding enthalpy (calorimetric) | unfolding enthalpy (van 't Hoff) |
| --- | --- | --- |
| D370S | 14.4 kcal/mol and 9.15 kcal/mol | 9.37 kcal/mol and 9.15 kcal/mol |

Variants of: B4
Details: Hypocrea jecorina (strain ATCC 56765 / BCRC 32924 / NRRL 11460 / Rut C-30); pH 5; Thermal; DSC; citrate - phosphate buffer 50 mM; structure 1ENX; whole UniProt chain shown

| Variant | Tm [°C] | change of melting temperature, mutant - wild type (higher = more stable) [°C] |
| --- | --- | --- |
| T35C T61C K91R | 72.5 | 11.1 |

Variants of: B5
Details: Pseudomonas putida (strain ATCC 47054 / DSM 6125 / CFBP 8728 / NCIMB 11950 / KT2440); pH 7.6; Fluorescence spectroscopy; whole UniProt chain shown

| Variant | Tm [°C] |
| --- | --- |
| E188K A142V H125Y | 59 |
| E188K H125Y | 61 |

Variants of: B6
Details: Rattus norvegicus; pH 6.5; 20 °C; Urea; CD; NaH2PO4 20 mM; NaCl 0.1 M; reversible: Yes; structure 1GSB; whole UniProt chain shown

| Variant | denaturant m value [kcal/mol/M] | denaturant midpoint (higher = more stable) [M] | unfolding free energy [kcal/mol] |
| --- | --- | --- | --- |
| F57S R82A | 2 | 4.6 | 10.1 |

Variants of: B7
Details: Bacillus amyloliquefaciens; pH 6.3; 25 °C; Urea; Fluorescence; MES 50 mM; reversible: yes; structure 1BNI; whole UniProt chain shown

| Variant | ddG of mutation (higher = less stable) [kcal/mol] |
| --- | --- |
| T53A | 2.23 |
| Y125F | 1.5 |
| H65Q | 1.6 |
| L61A | 4.8 |
| I135A | 4.46 |

Same assay, conditions: Bacillus amyloliquefaciens; pH 6.3; 25 °C; Urea; Fluorescence; MES 1.00 M; NaCl 613 mM; reversible: yes; structure 1BNI; whole UniProt chain shown

| Variant | ddG of mutation (higher = less stable) [kcal/mol] |
| --- | --- |
| Y60A | 3.71 |
| Y60A Y64A | 4.64 |

Same assay, conditions: Bacillus amyloliquefaciens; pH 6.3; 25 °C; Urea; Fluorescence; MES 1 M; structure 1BNI; whole UniProt chain shown

| Variant | ddG of mutation (higher = less stable) [kcal/mol] | unfolding free energy [kcal/mol] |
| --- | --- | --- |
| H65G | 0.89 | 8.01 |
| H65A | 2.15 | 6.75 |

Same assay, conditions: Bacillus amyloliquefaciens; pH 2.7; Thermal; CD; glycine-HCl 20 mM; KCl 200 mM; reversible: yes; structure 1BNI; whole UniProt chain shown

| Variant | Tm [°C] |
| --- | --- |
| I51A I98V | 25.7 |

Same assay, conditions: Bacillus amyloliquefaciens; pH 2.7; Thermal; DSC; glycine-HCl 20 mM; KCl 200 mM; reversible: yes; structure 1BNI; whole UniProt chain shown

| Variant | Tm [°C] |
| --- | --- |
| I51A I98V | 25.4 |
